# Measured values: US20170081400A1 (CEPHALON, published 2017)
# T1: human TL1A extracellular domain with N-terminal HIS and FLAG tag (human, UniProt O95150 72-251)
# T1 construct: whole entry named. ~70 kDa fraction purified by gel filtration
# T1 sequence: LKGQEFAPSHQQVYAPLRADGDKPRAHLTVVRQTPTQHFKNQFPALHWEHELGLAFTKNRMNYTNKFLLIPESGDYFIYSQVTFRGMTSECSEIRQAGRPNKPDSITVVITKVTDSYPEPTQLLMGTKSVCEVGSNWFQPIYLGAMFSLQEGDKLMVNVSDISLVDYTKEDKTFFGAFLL
# T2: human TL1A extracellular domain with N-terminal HIS and FLAG tag (human, UniProt O95150 72-251)
# T2 construct: the whole entry is named; also called TNFSF15
# T2 sequence: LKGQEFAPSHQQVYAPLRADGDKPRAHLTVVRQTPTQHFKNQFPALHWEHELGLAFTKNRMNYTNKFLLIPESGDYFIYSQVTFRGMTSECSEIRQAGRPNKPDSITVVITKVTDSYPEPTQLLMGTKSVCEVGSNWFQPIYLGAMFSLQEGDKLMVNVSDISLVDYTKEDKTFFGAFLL
# Legend:
# [1] = molecular target: T1, human TL1A extracellular domain with …; assay: SPR run 2; supernatant on Protein A; TL1A 10 ug/mL; timepoint 220
# Text: (§1) 1.5. Antibody expression and antigen binding as determined by SPR. Using a CM5 sensor chip (GE Healthcare) Protein A (Pierce) was coupled to the chip surface using an amine coupling kit (GE Healthcare). Protein A was coupled on flow cell 1 and 2 (or alternatively 3 and 4) using a BIACORE® T200. […] The amount of supernatant or purified protein (as well as the concentration) injected during the capture stage varied between runs and is specified in the header of the Tables 3-11. At the end of injection of the supernatant or purified antibody the change in response units was measured. This value was reported as Capture Level in Tables 3-11. […] The response units were measured prior to the end of the dissociation phase. […] The sensorgrams were double referenced (flow cell 2 is subtracted from flow cell 1 and a buffer blank). As there were a large number of antibody variants to screen, these were screened across different runs (Tables 3-11). […] A summary of the conditions used in each run is below:
# (§2) 2.1. […] In some experiment the antibodies were purified using Protein A chromatography (See 1.4) and purified antibodies were used in BIACORE® (GE Healthcare) experiments.
# [2] = molecular target: T1, human TL1A extracellular domain with …; assay: SPR run 2; supernatant on Protein A; TL1A 10 ug/mL; timepoint 44
# Text: as §1, §2
# [3] = molecular target: T2, human TL1A extracellular domain with …; assay: SPR Run 7, antibody on Protein A, TL1A 5 ug/mL, timepoint 44
# Summary of the method: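 Biacore T200 SPR with antibody (supernatant or Protein A-purified) captured on Protein A amine-coupled to a CM5 chip; capture level recorded as response change at end of capture.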
# [4] = molecular target: T2, human TL1A extracellular domain with …; assay: SPR Run 7, antibody on Protein A, TL1A 5 ug/mL, timepoint 220
# Summary of the method: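 CM5 chip, amine-coupled Protein A; capture of supernatant or purified Ab (load varies per run); capture level = ΔRU at end of injection; binding RU read late in dissociation; double referencing (reference cell + buffer blank).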
Binder,TL1A Binding Level (Late) [1] [RU],TL1A Binding Level (Early) [2] [RU],TL1A Binding Level (Early) [3] [RU],TL1A Binding Level (Late) [4] [RU]
"320-192 (antibody, human IgG1, name in Kabat numbering, V domains shown, human IgG1, lambda) VH: QVQLVQSGAEVKKPGASVKVSCKASGYTFTSYDINWVRQAPGQGLEWMGWLNPNSGNTGYAQKFQGRVTMTADRSTSTAYMELSSLRSEDTAVYYCAREVPETAAFEYWGQGTLVTVSS VL: QSVLTQPPSVSGAPGQRVTISCASSSSDIGAGLGVHWYQQLPGTAPKLLIEGYYNRPSGVPDRFSGSKSGTSASLTITGLLPEDEGDYYCQSYDGTLSALFGGGTKLTVLG",218,238,,
"320-212 (antibody, human IgG1, name in Kabat numbering, V domains shown, human IgG1, lambda) VH: QVQLVQSGAEVKKPGASVKVSCKASGYTFTSYDINWVRQAPGQGLEWMGWLNPNSGNTGYAQKFQGRVTMTADRSTSTAYMELSSLRSEDTAVYYCAREVPETAAFEYWGQGTLVTVSS VL: QSVLTQPPSVSGAPGQRVTISCTSHSSDIGAGLGVHWYQQLPGTAPKLLIEGYYNRPSGVPDRFSGSKSGTSASLTITGLLPEDEGDYYCQSYDGTLSALFGGGTKLTVLG",205,226,,
"320-200 (antibody, human IgG1, name in Kabat numbering, V domains shown, human IgG1, lambda) VH: QVQLVQSGAEVKKPGASVKVSCKASGYTFTSYDINWVRQAPGQGLEWMGWLNPNSGNTGYAQKFQGRVTMTADRSTSTAYMELSSLRSEDTAVYYCAREVPETAAFEYWGQGTLVTVSS VL: QSVLTQPPSVSGAPGQRVTISCYSSSSDIGAGLGVHWYQQLPGTAPKLLIEGYYNRPSGVPDRFSGSKSGTSASLTITGLLPEDEGDYYCQSYDGTLSALFGGGTKLTVLG",231,251,,
"320-217 (antibody, human IgG1, name in Kabat numbering, V domains shown, human IgG1, lambda) VH: QVQLVQSGAEVKKPGASVKVSCKASGYTFTSYDINWVRQAPGQGLEWMGWLNPNSGNTGYAQKFQGRVTMTADRSTSTAYMELSSLRSEDTAVYYCAREVPETAAFEYWGQGTLVTVSS VL: QSVLTQPPSVSGAPGQRVTISCTSSASDIGAGLGVHWYQQLPGTAPKLLIEGYYNRPSGVPDRFSGSKSGTSASLTITGLLPEDEGDYYCQSYDGTLSALFGGGTKLTVLG",235,258,,
"320-581 (antibody, human IgG1, name in Kabat numbering, V domains shown, full-length human IgG1, lambda) VH: QVQLVQSGAEVKKPGASVKVSCKASGYTFTSYDINWVRQAPGQGLEWMGWLNPNSGNTGLAQKFQGRVTMTADRSTSTAYMELSSLRSEDTAVYYCAREVPETAAFEYWGQGTLVTVSS VL: QSVLTQPPSVSGAPGQRVTISCTSSSSDIGAGLGVHWYQQLPGTAPKLLIEGYYNRPSGVPDRFSGSKSGTSASLTITGLLPEDEGDYYCQSYDGTLSALFGGGTKLTVLG",,,70,65
"320-208 (antibody, human IgG1, name in Kabat numbering, V domains shown, human IgG1, lambda) VH: QVQLVQSGAEVKKPGASVKVSCKASGYTFTSYDINWVRQAPGQGLEWMGWLNPNSGNTGYAQKFQGRVTMTADRSTSTAYMELSSLRSEDTAVYYCAREVPETAAFEYWGQGTLVTVSS VL: QSVLTQPPSVSGAPGQRVTISCTYSSSDIGAGLGVHWYQQLPGTAPKLLIEGYYNRPSGVPDRFSGSKSGTSASLTITGLLPEDEGDYYCQSYDGTLSALFGGGTKLTVLG",199,222,,
"320-210 (antibody, human IgG1, name in Kabat numbering, V domains shown, human IgG1, lambda) VH: QVQLVQSGAEVKKPGASVKVSCKASGYTFTSYDINWVRQAPGQGLEWMGWLNPNSGNTGYAQKFQGRVTMTADRSTSTAYMELSSLRSEDTAVYYCAREVPETAAFEYWGQGTLVTVSS VL: QSVLTQPPSVSGAPGQRVTISCTSQSSDIGAGLGVHWYQQLPGTAPKLLIEGYYNRPSGVPDRFSGSKSGTSASLTITGLLPEDEGDYYCQSYDGTLSALFGGGTKLTVLG",202,225,,
"320-195 (antibody, human IgG1, name in Kabat numbering, V domains shown, human IgG1, lambda) VH: QVQLVQSGAEVKKPGASVKVSCKASGYTFTSYDINWVRQAPGQGLEWMGWLNPNSGNTGYAQKFQGRVTMTADRSTSTAYMELSSLRSEDTAVYYCAREVPETAAFEYWGQGTLVTVSS VL: QSVLTQPPSVSGAPGQRVTISCDSSSSDIGAGLGVHWYQQLPGTAPKLLIEGYYNRPSGVPDRFSGSKSGTSASLTITGLLPEDEGDYYCQSYDGTLSALFGGGTKLTVLG",227,249,,
"320-206 (antibody, human IgG1, name in Kabat numbering, V domains shown, human IgG1, lambda) VH: QVQLVQSGAEVKKPGASVKVSCKASGYTFTSYDINWVRQAPGQGLEWMGWLNPNSGNTGYAQKFQGRVTMTADRSTSTAYMELSSLRSEDTAVYYCAREVPETAAFEYWGQGTLVTVSS VL: QSVLTQPPSVSGAPGQRVTISCTLSSSDIGAGLGVHWYQQLPGTAPKLLIEGYYNRPSGVPDRFSGSKSGTSASLTITGLLPEDEGDYYCQSYDGTLSALFGGGTKLTVLG",235,257,,
"320-582 (antibody, human IgG1, name in Kabat numbering, V domains shown, full-length human IgG1, lambda) VH: QVQLVQSGAEVKKPGASVKVSCKASGYTFTSYDINWVRQAPGQGLEWMGWLNPNSGNTGWAQKFQGRVTMTADRSTSTAYMELSSLRSEDTAVYYCAREVPETAAFEYWGQGTLVTVSS VL: QSVLTQPPSVSGAPGQRVTISCTSSSSDIGAGLGVHWYQQLPGTAPKLLIEGYYNRPSGVPDRFSGSKSGTSASLTITGLLPEDEGDYYCQSYDGTLSALFGGGTKLTVLG",,,67,52
"320-196 (antibody, human IgG1, name in Kabat numbering, V domains shown, human IgG1, lambda) VH: QVQLVQSGAEVKKPGASVKVSCKASGYTFTSYDINWVRQAPGQGLEWMGWLNPNSGNTGYAQKFQGRVTMTADRSTSTAYMELSSLRSEDTAVYYCAREVPETAAFEYWGQGTLVTVSS VL: QSVLTQPPSVSGAPGQRVTISCHSSSSDIGAGLGVHWYQQLPGTAPKLLIEGYYNRPSGVPDRFSGSKSGTSASLTITGLLPEDEGDYYCQSYDGTLSALFGGGTKLTVLG",228,250,,
"320-216 (antibody, human IgG1, name in Kabat numbering, V domains shown, human IgG1, lambda) VH: QVQLVQSGAEVKKPGASVKVSCKASGYTFTSYDINWVRQAPGQGLEWMGWLNPNSGNTGYAQKFQGRVTMTADRSTSTAYMELSSLRSEDTAVYYCAREVPETAAFEYWGQGTLVTVSS VL: QSVLTQPPSVSGAPGQRVTISCTSYSSDIGAGLGVHWYQQLPGTAPKLLIEGYYNRPSGVPDRFSGSKSGTSASLTITGLLPEDEGDYYCQSYDGTLSALFGGGTKLTVLG",147,171,,
"320-214 (antibody, human IgG1, name in Kabat numbering, V domains shown, human IgG1, lambda) VH: QVQLVQSGAEVKKPGASVKVSCKASGYTFTSYDINWVRQAPGQGLEWMGWLNPNSGNTGYAQKFQGRVTMTADRSTSTAYMELSSLRSEDTAVYYCAREVPETAAFEYWGQGTLVTVSS VL: QSVLTQPPSVSGAPGQRVTISCTSLSSDIGAGLGVHWYQQLPGTAPKLLIEGYYNRPSGVPDRFSGSKSGTSASLTITGLLPEDEGDYYCQSYDGTLSALFGGGTKLTVLG",196,221,,
"320-204 (antibody, human IgG1, name in Kabat numbering, V domains shown, human IgG1, lambda) VH: QVQLVQSGAEVKKPGASVKVSCKASGYTFTSYDINWVRQAPGQGLEWMGWLNPNSGNTGYAQKFQGRVTMTADRSTSTAYMELSSLRSEDTAVYYCAREVPETAAFEYWGQGTLVTVSS VL: QSVLTQPPSVSGAPGQRVTISCTHSSSDIGAGLGVHWYQQLPGTAPKLLIEGYYNRPSGVPDRFSGSKSGTSASLTITGLLPEDEGDYYCQSYDGTLSALFGGGTKLTVLG",155,193,,
"320-580 (antibody, human IgG1, name in Kabat numbering, V domains shown, full-length human IgG1, lambda) VH: QVQLVQSGAEVKKPGASVKVSCKASGYTFTSYDINWVRQAPGQGLEWMGWLNPNSYNTGYAQKFQGRVTMTADRSTSTAYMELSSLRSEDTAVYYCAREVPETAAFEYWGQGTLVTVSS VL: QSVLTQPPSVSGAPGQRVTISCTSSSSDIGAGLGVHWYQQLPGTAPKLLIEGYYNRPSGVPDRFSGSKSGTSASLTITGLLPEDEGDYYCQSYDGTLSALFGGGTKLTVLG",,,51,47
"320-215 (antibody, human IgG1, name in Kabat numbering, V domains shown, human IgG1, lambda) VH: QVQLVQSGAEVKKPGASVKVSCKASGYTFTSYDINWVRQAPGQGLEWMGWLNPNSGNTGYAQKFQGRVTMTADRSTSTAYMELSSLRSEDTAVYYCAREVPETAAFEYWGQGTLVTVSS VL: QSVLTQPPSVSGAPGQRVTISCTSWSSDIGAGLGVHWYQQLPGTAPKLLIEGYYNRPSGVPDRFSGSKSGTSASLTITGLLPEDEGDYYCQSYDGTLSALFGGGTKLTVLG",199,220,,
